From the supplement of paper PMC10724198

Experiments:
[1] = tested on: Saccharomyces cerevisiae; test: protein stability index of tFT-peptide fusion in deletion strain of DAS1 (PSI (0-1 scale)); higher = more stable (slower turnover)
Experimental: (§1)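 MPS profiling in S. cerevisiae of two library types built from selected 12-aa C-degron peptides (IN1, IN2, LN1, LN3, VN2, R1-R5, W1-W3, Atg1 and Rpa12 C-termini): saturation mutagenesis libraries and C-terminal +1 capping libraries (13 aa). Each peptide is fused to the C-terminus of a sfGFP-mCherry timer, after a GGGS linker. Cells are FACS-sorted into 8 mCherry/sfGFP bins and sequenced. PSI runs from 0 (unstable) to 1 (stable), measured once in wild type and in the das1Δ or doa10Δ background.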

[2] = tested on: Saccharomyces cerevisiae; test: protein stability index of tFT-peptide fusion in wild type (PSI (0-1 scale)); higher = more stable (slower turnover); details: genetic background: wild type
Experimental: as §1
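Throughout, for protein stability index of tFT-peptide fusion in deletion strain of DAS1: PSI is a weighted mean of each variant's read distribution over the sorted stability bins, computed only for variants having over 10 reads in total.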
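Throughout, for protein stability index of tFT-peptide fusion in wild type: PSI derived as read-weighted mean over the 8 sorting bins, only variants exceeding 10 total reads kept, mCherry placed adjacent to the peptide and sfGFP distal.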

| Sequence | protein stability index [1] | protein stability index [2] |
| --- | --- | --- |
| PSPAASFWRVVG | 0.69 | 0.115 |
| PTKRNHLIKLLN | 0.582 | 0.114 |
| PVVYLSCVACIN | 0.0265 | 0.0343 |
| QKHKKGQKQKIN | 0.676 | 0.0918 |
| RDIQPLPVQFLN | 0.596 | 0.0918 |
| REIQPLPVQFLN | 0.61 | 0.121 |
| RLEQPLPVQFLN | 0.574 | 0.0758 |
| RLIAPLPVQFLN | 0.738 | 0.0614 |
| RLIFPLPVQFLN | 0.553 | 0.0304 |
| RLILPLPVQFLN | 0.589 | 0.0596 |
| RLIMPLPVQFLN | 0.572 | 0.0368 |
| RLIQFLPVQFLN | 0.539 | 0.00974 |
| RLIQKLPVQFLN | 0.589 | 0.0183 |
| RLIQPHPVQFLN | 0.776 | 0.0682 |
| RLIQPLPFQFLN | 0.624 | 0.0405 |
| RLIQPLPLQFLN | 0.619 | 0.0437 |
| RLIQPLPVLFLN | 0.542 | 0.0545 |
| RLIQPLPVQFDN | 0.624 | 0.668 |
| RLIQPLPVQFLI | 0.537 | 0.0642 |
| RLIQPLPVQFLP | 0.57 | 0.62 |
| RLIQPLPVQFMN | 0.614 | 0.0175 |
| RLIQPLPVQFRN | 0.609 | 0.533 |
| RLIQPLPVQFVN | 0.598 | 0.0426 |
| RLIQPLPVQFWN | 0.618 | 0.132 |
| RLIQPLPVVFLN | 0.565 | 0.047 |

| Sequence | protein stability index [1] | protein stability index [2] |
| --- | --- | --- |
| RLIQPLPVWFLN | 0.609 | 0.0563 |
| RLIQPLSVQFLN | 0.594 | 0.0547 |
| RLIQPLTVQFLN | 0.608 | 0.065 |
| RLIQTLPVQFLN | 0.594 | 0.0873 |
| RLKQPLPVQFLN | 0.559 | 0.181 |
| RNIQPLPVQFLN | 0.61 | 0.0759 |
| RPIQPLPVQFLN | 0.593 | 0.0515 |
| RRWRVGLWRGAS | 0.684 | 0.389 |
| RVIQPLPVQFLN | 0.576 | 0.0531 |
| RWIQPLPVQFLN | 0.686 | 0.0536 |
| SSMRWTFRYWVN | 0.608 | 0.113 |
| TRWRVGLWRGAS | 0.602 | 0.394 |
| TTSCGYKFRTNN | 0.677 | 0.255 |
| VDGAVGGWRLVG | 0.685 | 0.155 |
| VRCAVGGWRLVG | 0.716 | 0.126 |
| VRGAVGGARLVG | 0.673 | 0.618 |
| VRGAVGGKRLVG | 0.677 | 0.649 |
| VRGAVGGWALVG | 0.667 | 0.438 |
| VRGAVGGWRLCG | 0.676 | 0.239 |
| VRGAVGGWRLMG | 0.66 | 0.177 |
| VRGAVGGWRLVGE | 0.66 | 0.612 |
| VRGAVGGWRLVN | 0.673 | 0.157 |
| VRGAVGGWRLVQ | 0.684 | 0.24 |
| VRGAVGGWRLWG | 0.717 | 0.534 |
